Results from patent US20240398864A1.

Target: mERK2 9m peptide (synthetic short-chain peptide for CD8-positive T-cell stimulation, …) (mouse)
Experiment: cell-based or functional assay

percentage of IFN-γ-producing cells in CD90.1-positive CD8-positive infused T cells of the draining lymph node after stimulation with mERK2 9m peptide (intracellular cytokine staining): 80%
Substance: mutated ERK2-specific T-cell receptor of DUC18 transgenic mice, on CD8-positive T cells (TCR)
